Experimental data from patent publication US20180057553A1 (UNIVERSITY OF TOKYO, published 2018).

How the values were obtained:
[1] = target: T1, recombinant human TNF-alpha (Life Technologies) (human, UniProt P01375 77-233); experiment: Biacore SPR: conjugate fixed to the sensor chip via an amino group, recombinant human TNF-alpha as analyte at 0.78-100 nM
Text: (§1) Recombinant human TNF-alpha (Life Technologies) was used as TNF-alpha.

[2] = target: T1, recombinant human TNF-alpha (Life …); experiment: depletion assay: serially diluted conjugate mixed with human TNF-alpha (100% = 6.2 ng/mL), complex adsorbed on diol Sepharose beads, TNF-alpha remaining in the supernatant measured by ELISA; 1st experiment
Procedure: (§2) The complex of TNF-alpha and the conjugate were then adsorbed using 3 microliters of diol Sepharose beads. Subsequently, TNF-alpha in the supernatant was measured by ELISA, and the percentage of the remaining TNF-alpha was calculated. Experiments were done twice, independently.

[3] = target: T1, recombinant human TNF-alpha (Life …); experiment: depletion assay: serially diluted conjugate mixed with human TNF-alpha (100% = 6.2 ng/mL), complex adsorbed on diol Sepharose beads, TNF-alpha remaining in the supernatant measured by ELISA; 2nd experiment
Procedure: as §2

[4] = target: T1, recombinant human TNF-alpha (Life …); experiment: SPR (Biacore), conjugate amine-coupled to chip, TNF-alpha as analyte
Text: as §1

T1 sequence (P01375 77-233 limits assumed): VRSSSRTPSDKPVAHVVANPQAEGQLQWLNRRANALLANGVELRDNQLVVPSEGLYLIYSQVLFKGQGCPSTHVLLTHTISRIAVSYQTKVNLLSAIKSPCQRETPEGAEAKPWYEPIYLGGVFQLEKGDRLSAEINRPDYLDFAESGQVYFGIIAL

- koff [1]: 0.000536 s⁻¹
- EC50 (read off the curve) [2]: ~0.3 µg/mL
- EC50 (read off the curve) [3]: ~0.3 µg/mL
- Kd [4]: 0.468 nM
- kon [4]: 1.14e+06 M⁻¹ s⁻¹
B1: conjugate of the extracellular region of human TNF receptor 2 (TNFR2) and mutant recombinant human intelectin-1 (S165A) (receptor)
chain: LPAQVAFTPYAPEPGSTCRLREYYDQTAQMCCSKCSPGQHAKVFCTKTSDTVCDSCEDSTYTQLWNWVPECLSCGSRCSSDQVETQACTREQNRICTCRPGWYCALSKQEGCRLCAPLRKCRPGFGVARPGTETSDVVCKPCAPGTFSNTTSSTDICRPHQICNVVAIPGNASMDAVCTSTSPTRSMAPGAVHLPQPVSTRSQHTQPTPEPSTAPSTSFLLPMGPSPPAEGSTGDGTDEANTYFKEWTCSSSPSLPRSCKEIKDECPSAFDGLYFLRTENGVIYQTFCDMTSGGGGWTLVASVHENDMRGKCTVGDRWSSQQGSKADYPEGDGNWANYNTFGSAEAATSDDYKNPGYYDIQAKDLGIWHVPNKSPMQHWRNSALLRYRTDTGFLQTLGHNLFGIYQKYPVKYGEGKCWTDNGPVIPVVYDFGDAQKTASYYSPYGQREFTAGFVQFRVFNNERAANALCAGMRVTGCNTEHHCIGGGGYFPEASPQQCGDFSGFDWSGYGTHVGYSSSREITEAAVLLFYR
notes: also called conjugate of TNFR2 and intelectin
